Columns and labels:
[1] = biological target: T1, nonsense peptide YLSGPFMSYL; assay: C8-C competitive ELISA with HRP-labelled 13G5
T1 construct: Control peptide of the C8-C specificity test; also called nonsense peptide (C8-C)
T1 peptide: YLSGPFMSYL
Description: (§1) ELISA-plates used for the assay development were Streptavidin-coated from Roche (cat.: 11940279). All ELISA plates were analyzed with the ELISA reader from Molecular Devices, SpectraMax M, (CA, USA). We labelled the selected monoclonal antibody with horseradish peroxidase (HRP) using the Lightning link HRP labelling kit according to the instructions of the manufacturer (Innovabioscience, Babraham, Cambridge, UK). A 96-well streptavidin plate was coated with biotinylated synthetic peptide biotin-[…] (SEQ ID NO: 25) (Chinese Peptide Company, China) dissolved in assay buffer (50 mM Trizma, 0.46 mM Tween 20, 0.08 mM Phenol Red, 34 mM NaCl, 0.36% Bronidox L5, 1% BSA, pH 7.4) and incubated 30 minutes at 20° C. 20 μL of standard peptide or samples diluted in assay buffer were added to appropriate wells, followed by 100 μL of HRP conjugated monoclonal antibody 13G5, and incubated 20 hour at 4° C. Finally, 100 μL tetramethylbenzinidine (TMB) (Kem-En-Tec cat.4380H) was added and the plate was incubated 15 minutes at 20° C. in the dark. All the above incubation steps included shaking at 300 rpm. After each incubation step the plate was washed five times in washing buffer (20 mM Tris, 50 mM NaCl). The TMB reaction was stopped by adding 100 μL of stopping solution (1% H₂SO₄) and measured at 450 nm with 650 nm as the reference. […]

[2] = biological target: T2, elongated peptide SFSGYLLYPMA; assay: C8-C competitive ELISA with HRP-labelled 13G5
T2 construct: Selection peptide with one more alanine at the C-terminus; synthetic (Chinese Peptide Company); also called elongated peptide (one additional amino acid)
T2 peptide: SFSGYLLYPMA
Description: as §1

B1: monoclonal antibody NB683-13G5 (antibody, mouse IgG1, kappa, V domains shown)
VH: EVLLQQSGPELEKPGASVKISCKASGYSLTDYNMNWVKQSDGKSLEWIGIIDPNYGDTNYNQKFKDKATLTVDKSSNTAHMQLKSLTSDDSAVYYCARSGYYGNSHYGLDYWGQGTSVTVSS
VL: QIVLTQSPAIMSASPGERVTMTCSVSSSVGYIHWYQQKSGTSPKRWISDTSKLASGVPSRFSGSGSGASYSLTIDRVEAEDAATYYCQQWSSNPPTFGGGTKLEMKR
notes: also called clone 13G5; monoclonal antibody 13G5
B1: no binding [1]; no binding [2].

Source: patent publication US20220196676A1 (NORDIC BIOSCIENCE A S, published 2022)
